From US20180258175A1 (ABLEXIS, published 2018)

Key:
[1] = target: T1, human CD115 extracellular domain (Sino Biological 10161-H08H) (human, UniProt P07333 20-517); experiment: competition ELISA, competitor TMR 35A;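 note: clonal hybridoma supernatant antibodies added to wells after the competitor mouse antibody, lost binding signal puts an antibody in that competitor's epitope bin; low signal means same epitope bin as the mouse competitor antibody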
T1 construct: extracellular domain; bought recombinant protein; also called huCD115; hu-CD115

[2] = target: T1, human CD115 extracellular domain (Sino …); experiment: competition ELISA, competitor TMR 100A;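 note: clonal anti-huCD115 hybridoma supernatants tested for binding with the competitor antibody present, clones failing to bind are assigned to the competitor's epitope bin; low signal means same epitope bin as the mouse competitor antibody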
[3] = target: T1, human CD115 extracellular domain (Sino …); experiment: competition ELISA, competitor TMR 20A;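 note: epitope binning by ELISA, anti-huCD115 hybridoma supernatant antibodies tested for binding to huCD115 with the competitor antibody present, loss of binding placing them in the competitor's bin; low signal means same epitope bin as the mouse competitor antibody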
[4] = target: T1, human CD115 extracellular domain (Sino …); experiment: competition ELISA, competitor TMR 24A;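 note: clonal anti-huCD115 hybridoma supernatant antibodies bound with a competitor mouse antibody present, and failure to bind puts a clone in that competitor's epitope bin; low signal means same epitope bin as the mouse competitor antibody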
[5] = target: T1, human CD115 extracellular domain (Sino …); experiment: competition ELISA, competitor TMR 95A
[6] = target: T1, human CD115 extracellular domain (Sino …); experiment: competition ELISA, competitor TMR 44B
[7] = target: T1, human CD115 extracellular domain (Sino …); experiment: SPR ProteOn, supernatant mAb captured on anti-mouse IgG, Hu CD115 analyte

Row | Binder | signal vs NO COMP=100 [1] | signal vs NO COMP=100 [2] | signal vs NO COMP=100 [3] | signal vs NO COMP=100 [4] | signal vs NO COMP=100 [5] | signal vs NO COMP=100 [6] | Kd [7] | koff [7] | kon [7]
1 | CCK-422A (antibody, V domains shown, AlivaMab chimeric IgG, human kappa LC) VH: QVQLQESGPGLVKPSETLSLTCSVSGGSISSYYWSWIRQPPGKGLEWIGYVSYSGGTNYNPSLKSRVTISVDTSKNQFSLKLSSVTAADTAVYYCARGFDYWGQGTLVTVSS VL: not shown | 111% | 111% | 107% | 11% | 6% | 31% |  |  | 
2 | CCK-542A (antibody, V domains shown, AlivaMab chimeric IgG, human kappa LC) VH: QVQLQESGPGLVKPSETLSLTCTVSGGSISSYYWSWIRQPAGKGLEWIGRIYSSGSINYNPSLKSRVTMSVDTSKNQFSLKLSSVTAADTAVFYCARDRAFYGMDVWGQGTTVTVSS VL: not shown | 111% | 76% | 7% | 94% | 23% | 10% |  |  | 
3 | CCK-505A (antibody, V domains shown, AlivaMab chimeric IgG, human kappa LC) VH: EVQLVESGGGLVQPGGSLRLSCAASGFTFSSYSMNWVRQAPGKGLEWVSYISSSSSTIYYADSVKGRFTISRDNAKNSLYLQMNSLRDEDTAVYYCAREGERFCGADCYPHWFDPWGQGTLVTVSS VL: not shown | 110% | 111% | 53% | 0% | 1% | 10% |  |  | 
4 | CCK-412A (antibody, V domains shown, AlivaMab chimeric IgG, human kappa LC) VH: not shown VL: DIQMTQSPSSVSASVGDRVTITCRASPGISSWLAWYQQKPEKAPKLLIYAASSLQSGVPSRFSGSGSGTDFTLTISSLQPEDFATYYCQQAYSFPYTFGQGTKLEIK | 78% | 91% | 70% | 13% | 3% | 110% |  |  | 
5 | CCL-313A (antibody, V domains shown, AlivaMab chimeric IgG, human lambda LC) VH: QVQLQESGPGLVKPSETLSLTCTVSGGSISSYYWSWIRQPPGKGLEWIGYIYYTGSTNYNPSLKSRVTISVDTSKNQFSLKLSSVTAADTAVYYCARGWWELTFFDYWGQGTLVTVSS VL: not shown |  |  |  |  |  |  | 1240 pM | 9.09e-05 s⁻¹ | 73600 M⁻¹ s⁻¹
6 | CCL-231A (antibody, V domains shown, AlivaMab chimeric IgG, human lambda LC) VH: QVQLQESGPGLVKPSETLSLTCTVSGGSISSYYWSWIRQPAGKGLEWIGRIYTSGNTNYNPSLKSRVTMSLDTSKNQFSLKLSSVTAADTAVYYCARVGAIGVDAFDIWGQGTMVTVSS VL: QSALTQPASVSGSPGQSITISCTGTSSDVGSYNLVSWYQQHPGKAPKLMIYEGSKRPSGVSNRFSGSKSGNTASLTISGLQAEDEADYYCCSYAGSSTFVVFGGGTKLTVL |  |  |  |  |  |  | 578 pM | 4.71e-05 s⁻¹ | 81000 M⁻¹ s⁻¹
7 | CCL-329A (antibody, V domains shown, AlivaMab chimeric IgG, human lambda LC) VH: QVQPQESGPGLVKPSETLSLTCTVSGGSISGYYWSWIRQPAGTGLEWIGRIYTSGSTNYNSSLKSRVTMSVDTSKNQFSLKLSSVTAADTAVYYCARERMATIFDYWGQGTLVTVSS VL: not shown |  |  |  |  |  |  | 38 pM | 4.46e-06 s⁻¹ | 118000 M⁻¹ s⁻¹
8 | CCK-435A (antibody, V domains shown, AlivaMab chimeric IgG, human kappa LC) VH: QVQLQQWGAGLLKPSETLSLTCAVYGGSCSAYYWSWIRQPPGKGLEWIGEINHSGSTNYNPSLKSRVTISVDTSRNQFSLKLSSVTAADTAVYYCAREADAFDIWGQGTMVTVSS VL: not shown | 96% | 17% | 85% | 79% | 86% | 75% |  |  | 
9 | CCK-402A (antibody, V domains shown, AlivaMab chimeric IgG, human kappa LC) VH: not shown VL: DIVMTQTPLSLPVTPGEPASISCRSSQSLLDSDDGNTYLDWFLQKPGQSPQLLIYTLSYRASGVPDRFSGSGSGTDFTLKISRVEADDVGVYYCMQRIEFPFTFGQGTKLEIK | 11% | 147% | 145% | 131% | 131% | 126% |  |  | 
10 | CCL-331A (antibody, V domains shown, AlivaMab chimeric IgG, human lambda LC) VH: QVQLQESGPGLVKPSETLSLTCTVSGGSISSYYWSWIRQPAGKGLEWIGRIYTSGSTNYNPSLKSRVTMSVDTSKNQFSLKLSSVTAADTAVYYCAREGLRGFDPWGQGTLVTVSS VL: not shown |  |  |  |  |  |  | 118 pM | 2.2e-05 s⁻¹ | 186000 M⁻¹ s⁻¹
11 | CCK-417A (antibody, V domains shown, AlivaMab chimeric IgG, human kappa LC) VH: QVTLRESGPALVKPTQTLTLTCTFSGFSLSTSGMCVSWIRQPPGKALECLALIDWDDDKYYSTSLKTRLTISKDTSKNQVVLTMTNMDPVDTATYYCARTQLGIADYWGQGTLVTVSS VL: AIRMTQSPSSFSASTGDRVTITCRASQGISSYLAWYQQKPGKAPKLLIYAASTLQSGVPSRFSGSGSGTDFTLTISCLQSEDFATYYCQQYYSYPFTFGPGTKVDIK | 110% | 113% | 110% | 6% | 3% | 19% |  |  | 
12 | CCK-522A (antibody, V domains shown, AlivaMab chimeric IgG, human kappa LC) VH: QITLKESGPTLVKPTQTLTLTCTFSGFSLSTSGVGVGWIRQPPGKALEWLALIYWNDDKRYSPSLKSRLTITKDTSKNQVVLTMTNMDPVDTATYYCAHQERRSGWSFDYWGQGTLVSVSS VL: not shown |  | 67% | 34% | 33% | 7% | 24% |  |  | 
13 | CCL-206A (antibody, V domains shown, AlivaMab chimeric IgG, human lambda LC) VH: QVQLQESGPGLVKPSETLSLTCTVSGGSISSYYWTWIRQPPGKGLEWIGYIYYSGITNYNPSLKSRVTMSMDTSKNQFSLRLSSVTAADTAVYYCARGRIIGAFDIWGQGTMVTVSS VL: not shown |  |  |  |  |  |  | 495 pM | 2.92e-05 s⁻¹ | 59000 M⁻¹ s⁻¹
14 | CCL-327A (antibody, V domains shown, AlivaMab chimeric IgG, human lambda LC) VH: QVQLQESGPGLVKPSETLSLTCSVSGGSISSYHWSWIRQPAGKGLEWIGRIYTGGSTNYNPSLKSRVTMSVDTSKNQFSLKLSSVTAADTAVYYCARERLTGYFDYWGQGTLVTVSS VL: not shown |  |  |  |  |  |  | 1410 pM | 0.000189 s⁻¹ | 133000 M⁻¹ s⁻¹
15 | CCL-249A (antibody, V domains shown, AlivaMab chimeric IgG, human lambda LC) VH: QVQLQESGPGLVKPSETLSLTCTVSGGSISSYYWSWIRQPAGKGLEWVGRLFTSGSTNYNPSLKSRVTMSVDTSKNQFSLKLSSVIAADTAVYYCARERLTGYFDYWGQGTLVTVSS VL: not shown |  |  |  |  |  |  | 599 pM | 8.91e-05 s⁻¹ | 149000 M⁻¹ s⁻¹
16 | CCL-215A (antibody, V domains shown, AlivaMab chimeric IgG, human lambda LC) VH: EVQLVESGGGLVQPGGSLRLSCAASGFTFSSYSMNWVRQAPGKGLEWVSYISSSSSTIYYADSVKGRFTISSDNAKNSLYLQMDSLRDEDTAVYYCARDRLGIPFDYWGQGTLVTVSS VL: not shown |  |  |  |  |  |  | 215 pM | 1.83e-05 s⁻¹ | 85300 M⁻¹ s⁻¹
17 | CCL-225A (antibody, V domains shown, AlivaMab chimeric IgG, human lambda LC) VH: EVQLVESGGGLVKPGGSLRLSCAASGFTFSSYNMNWVRQAPGKGLEWVSSISSSSNYIYYADSVKGRFTISGDTAKNSLFLQMISLRVEDTAVYYCARDRLGIPFDYWGQGSLVTVSS VL: not shown |  |  |  |  |  |  | 277 pM | 1.38e-05 s⁻¹ | 50000 M⁻¹ s⁻¹
18 | CCL-340A (antibody, V domains shown, AlivaMab chimeric IgG, human lambda LC) VH: EVQLVESGGGLVKPGGSLRLSCAASGFTFSSYSMKWVRQAPVKGLEWVSSISSSSSYIYYGDSVKGRFTISRDNAKNSLYLQMNSLRAEDTAVYYCARERLGRAFDIWGQGTMVTVSS VL: not shown |  |  |  |  |  |  | 367 pM | 2.72e-05 s⁻¹ | 74100 M⁻¹ s⁻¹
19 | CCL-217A (antibody, V domains shown, AlivaMab chimeric IgG, human lambda LC) VH: QVQLQESGPGLVKPSETLSLTCTVSGGSISSYYWSWIRQPAGKGLEWIGRIYSSGTTNYNPSLKSRVTMSVETSKNQFSLNLSSVTAADTAVYYCARERITGHFDYWGQGTLVTVSS VL: not shown |  |  |  |  |  |  | 1220 pM | 0.00012 s⁻¹ | 98100 M⁻¹ s⁻¹
20 | CCK-511A (antibody, V domains shown, AlivaMab chimeric IgG, human kappa LC) VH: EVQVVESGGGLVQPGKSLRLSCAASGFPFSVYWMTWVRQAPGKGLEWVANIKQDGSEKYYVDSVKGRFTISRDNAKNSLYLQMNSLRAEDTAVYCCASGYHLFDYWGQGTLVTVSS VL: not shown | 76% | 91% | 77% | 99% | 3% | 2% |  |  | 
21 | CCK-526A (antibody, V domains shown, AlivaMab chimeric IgG, human kappa LC) VH: EVQVVESGGGLVQPGKSLRLSCAASGFTFSTYWMTWVRQAPGKGLEWVANIKQDGSEKYYVDSVKGRFTISRDNAKNSLYLQMNSLRAEDTAVYCCASGYHLFDYWGQGTLVTVSS VL: not shown | 82% | 84% | 92% | 68% | 9% | 3% |  |  | 
22 | CCL-310A (antibody, V domains shown) VH: EVQLVESGGGLVQPGGSLRLSCAASGFTFSNYWMRWVRQAPGKGLEWVANIKQDGSEKYYVDSVKGRFTISRDNAKYSLYLQMNSLRAEDTAVYYCARDRLGIFDYWGQGTLVTVSS VL: not shown |  |  |  |  |  |  | 79 pM | 4.35e-06 s⁻¹ | 50600 M⁻¹ s⁻¹
